US20130266582A1 (YEDA RESEARCH AND DEVELOPMENT, published 2013)

Experiments:
[1] = molecular target: T1, HA-DAPk (N-terminal hemaglutinin-tagged human full-length death-associated protein kinase) (human, UniProt P53355 1-1430); test: co-immunoprecipitation with anti-Flag beads from co-transfected HEK 293T cells, western blot (FIG. 2B)
T1 construct: also called HA-DAPk (WT); DAPk WT; not shown: N-terminal HA (hemaglutinin) tag
Method: FIG. 2A, Schematic representation of the different DAPk constructs utilized for mapping DAPk homo-oligomerization. The indicated domains: Kinase domain (KD); Ca⁺²/Calmodulin binding region (CaM); Ankyrin repeats (AK); P-Loop; Ras of complex proteins domain (ROC); C-terminal of ROC domain (COR); Death domain (DD); and Serine (Ser) rich tail. […] Immunoprecipitation with anti-Flag beads (IP-α-Flag) was performed and immuno-complexes and cell extracts were analyzed by western blot. FIG. 2C, Cells co-transfected with Flag-DAPk and one of the different HA-tagged DAPk constructs, namely HA-DAPk (WT), HA-ΔROC—a deletion between amino acids 667-954; HA-ΔKinase—a N-terminal deletion (1-285); and ΔROC/ΔKinase—deletion of both KD (1-285) and ROC domain (667-954). Immunoprecipitation and western blot were performed as in B. FIG. 2D, Cells co-transfected with Flag-ROC and HA-ROC; HA-ROC and Flag-ROC-Δ-P-loop; Flag-ROC and HA-DAPk (WT); Flag-ROC-Δ-P-Loop and HA-DAPk (WT); or HA-ROC and DAP1-Flag.
Immunoprecipitation with anti-Flag beads (IP-α-Flag) was performed and immuno-complexes and cell extracts were analyzed by western blot. […] Thus, ROC fragment by itself is sufficient to bind the full length DAPk. Also the ROC fragments interacted with each other (FIG. 2D). […] Together the experiments in FIG. 2B-D established the role of the ROC domain in mediating homo-oligomerization.

[2] = molecular target: the molecule itself; test: analytical size exclusion chromatography (Superdex 200) of immunopurified Flag-DAPk
Excerpt: Immunopurified Flag-DAPk was loaded onto an analytical Superdex™ 200 10/300 (GE Healthcare) gel-filtration column equilibrated with TBS. The eluting protein was detected by UV absorbance at 280 nm. Fractions were collected using the AKTA Prime fraction collector and analyzed by Western blot with anti-Flag antibodies. The migration position of the fractions containing Flag-DAPk was assigned relative to the migration position of Gel Filtration Calibration HMW standards (GE Healthcare) on the same column.
It elutes in two clearly defined peaks corresponding to ˜640 kDa and ˜320 kDa (FIG. 1D). […] Furthermore, the absence of a peak at the 160 kDa size range excluded the existence of monomers under native conditions. Fractions were collected at indicated elution points and submitted to western blot analysis, confirming DAPk identity at the selected peaks (FIG. 1E).

B1: DAP1-Flag (C-terminal Flag-tagged death-associated protein 1) (other, UniProt P51397 2-102, looked up)
chain: SSPPEGKLETKAGHPPAVKAGGMRIVQKHPHTGDTKEEKDKDDQEWESPSPPKPTVFISGVIARGDKDFPPAAAQVAHQKPHASMDKHPSPRTQHIQQPRK
notes: Irrelevant Flag-tagged control protein; not shown: C-terminal Flag tag
binding result [1]: no binding

B2: Flag-DAPk (N-terminal Flag-tagged human full-length death-associated protein kinase) (enzyme)
chain: MTVFRQENVDDYYDTGEELGSGQFAVVKKCREKSTGLQYAAKFIKKRRTKSSRRGVSREDIEREVSILKEIQHPNVITLHEVYENKTDVILILELVAGGELFDFLAEKESLTEEEATEFLKQILNGVYYLHSLQIAHFDLKPENIMLLDRNVPKPRIKIIDFGLAHKIDFGNEFKNIFGTPEFVAPEIVNYEPLGLEADMWSIGVITYILLSGASPFLGDTKQETLANVSAVNYEFEDEYFSNTSALAKDFIRRLLVKDPKKRMTIQDSLQHPWIKPKDTQQALSRKASAVNMEKFKKFAARKKWKQSVRLISLCQRLSRSFLSRSNMSVARSDDTLDEEDSFVMKAIIHAINDDNVPGLQHLLGSLSNYDVNQPNKHGTPPLLIAAGCGNIQILQLLIKRGSRIDVQDKGGSNAVYWAARHGHVDTLKFLSENKCPLDVKDKSGEMALHVAARYGHADVAQLLCSFGSNPNIQDKEEETPLHCAAWHGYYSVAKALCEAGCNVNIKNREGETPLLTASARGYHDIVECLAEHGADLNACDKDGHIALHLAVRRCQMEVIKTLLSQGCFVDYQDRHGNTPLHVACKDGNMPIVVALCEANCNLDISNKYGRTPLHLAANNGILDVVRYLCLMGASVEALTTDGKTAEDLARSEQHEHVAGLLARLRKDTHRGLFIQQLRPTQNLQPRIKLKLFGHSGSGKTTLVESLKCGLLRSFFRRRRPRLSSTNSSRFPPSPLASKPTVSVSINNLYPGCENVSVRSRSMMFEPGLTKGMLEVFVAPTHHPHCSADDQSTKAIDIQNAYLNGVGDFSVWEFSGNPVYFCCYDYFAANDPTSIHVVVFSLEEPYEIQLNQVIFWLSFLKSLVPVEEPIAFGGKLKNPLQVVLVATHADIMNVPRPAGGEFGYDKDTSLLKEIRNRFGNDLHISNKLFVLDAGASGSKDMKVLRNHLQEIRSQIVSVCPPMTHLCEKIISTLPSWRKLNGPNQLMSLQQFVYDVQDQLNPLASEEDLRRIAQQLHSTGEINIMQSETVQDVLLLDPRWLCTNVLGKLLSVETPRALHHYRGRYTVEDIQRLVPDSDVEELLQILDAMDICARDLSSGTMVDVPALIKTDNLHRSWADEEDEVMVYGGVRIVPVEHLTPFPCGIFHKVQVNLCRWIHQQSTEGDADIRLWVNGCKLANRGAELLVLLVNHGQGIEVQVRGLETEKIKCCLLLDSVCSTIENVMATTLPGLLTVKHYLSPQQLREHHEPVMIYQPRDFFRAQTLKETSLTNTMGGYKESFSSIMCFGCHDVYSQASLGMDIHASDLNLLTRRKLSRLLDPPDPLGKDWCLLAMNLGLPDLVAKYNTSNGAPKDFLPSPLHALLREWTTYPESTVGTLMSKLRELGRRDAADFLLKASSVFKINLDGNGQEAYASSCNSGTSYNSISSVVSR
notes: bait in anti-Flag immunoprecipitation; also called full length DAPk; not shown: N-terminal Flag tag
binding result [2]: binds
